Laboratory results as given in the supplement of paper PMC10126150.
± gives the standard deviation of the averaged measurements.

Tested on: ATP
Experiment: switch fluorescence ratio, 500 uM ATP over buffer (Cy3 cluster intensity, sum of 5 cycles each) (fold (ratio)); higher = stronger signal-on switching upon ATP binding; sequences stand for … in TCGTCGGCAGCGTCAGATGTGTATAAGAGACAGTTTTTTTTTTTTTTTTTTTTTTTTT…TC
Settings: aptamer strand: ATP DNA aptamer (quencher-CACCTGGGGGAGTATTGCGGAGGAAGG + anchor), 100 nM annealed; ATP concentration: 500 uM
Outline: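 Five buffer/ATP imaging cycles were run on Cy3-labelled switching-strand clusters on a modified Illumina MiSeq flow-cell, with NaOH stripping and re-annealing between cycles. In each cycle, clusters annealed to 100 nM quencher-labelled ATP aptamer were imaged in selection buffer, then after 15 min with 500 uM ATP at 22 °C. Per cluster, the fluorescence ratio is summed target-cycle over summed buffer-cycle Cy3 intensity, averaged per switch-domain sequence. Only clusters within 100-1000 RFU were kept.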
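Note: ATP exposure 15 min at 22 °C before imaging.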

**Q.** For ACAGCCCGGA, which switch fluorescence ratio is on record?
**A.** The switch fluorescence ratio was 1.07 ± 0.04.

**Q.** With CCGCGGGTTG as the sequence, how does the switch fluorescence ratio read?
**A.** Its switch fluorescence ratio is 1.05 ± 0.02.

**Q.** Which switch fluorescence ratio does the source give for TCGTGAGTAG here?
**A.** Its switch fluorescence ratio is 0.973 ± 0.017.

**Q.** Which switch fluorescence ratio does the source give for TTCAAGTGGG here?
**A.** The switch fluorescence ratio was 0.9848 ± 0.0028.

**Q.** How did the switch fluorescence ratio turn out when CTTGAATACT was run?
**A.** Its switch fluorescence ratio is 1.05 ± 0.03.

**Q.** How did the switch fluorescence ratio turn out when GAAGGTGATC was run?
**A.** The switch fluorescence ratio was 1.01 ± 0.012.

**Q.** TGGGGATTTA was tested. Which switch fluorescence ratio did it give?
**A.** Its switch fluorescence ratio is 1.003 ± 0.0072.

**Q.** Which switch fluorescence ratio does the source give for TTTAATGGAG here?
**A.** The switch fluorescence ratio was 1.02 ± 0.034.

**Q.** For AAAAAGGGCC, which switch fluorescence ratio is on record?
**A.** Its switch fluorescence ratio is 1.009 ± 0.0089.

**Q.** With TTTGATTCAC as the sequence, how does the switch fluorescence ratio read?
**A.** Its switch fluorescence ratio is 1.02 ± 0.041.

**Q.** With TGTGGGTCCG as the sequence, how does the switch fluorescence ratio read?
**A.** The switch fluorescence ratio was 1 ± 0.036.

**Q.** Which switch fluorescence ratio does the source give for TCCTTGGCTT here?
**A.** Its switch fluorescence ratio is 1.47 ± 0.49.

**Q.** ATGCACTGGG was tested. Which switch fluorescence ratio did it give?
**A.** The switch fluorescence ratio was 1.08 ± 0.05.

**Q.** How did the switch fluorescence ratio turn out when CCGGGAGCCG was run?
**A.** Its switch fluorescence ratio is 1.023 ± 0.0053.

**Q.** Which switch fluorescence ratio does the source give for ATTATTGCGT here?
**A.** The switch fluorescence ratio was 1.03 ± 0.04.

**Q.** With AGTAAATTAT as the sequence, how does the switch fluorescence ratio read?
**A.** The switch fluorescence ratio was 1.03 ± 0.027.

**Q.** Which switch fluorescence ratio does the source give for GGAGTGGGTC here?
**A.** The switch fluorescence ratio was 1.02 ± 0.041.

**Q.** GAGGGCGTCA was tested. Which switch fluorescence ratio did it give?
**A.** The switch fluorescence ratio was 0.995 ± 0.027.

**Q.** GGAGTCAGAA was tested. Which switch fluorescence ratio did it give?
**A.** The switch fluorescence ratio was 0.995 ± 0.014.

**Q.** How did the switch fluorescence ratio turn out when ATGCATGAAA was run?
**A.** Its switch fluorescence ratio is 1 ± 0.017.

**Q.** How did the switch fluorescence ratio turn out when AATATTATTA was run?
**A.** The switch fluorescence ratio was 1.019 ± 0.0041.

**Q.** ATGGGGTGTG was tested. Which switch fluorescence ratio did it give?
**A.** The switch fluorescence ratio was 1 ± 0.018.

**Q.** For TGCCCGGACA, which switch fluorescence ratio is on record?
**A.** The switch fluorescence ratio was 1.01 ± 0.027.

**Q.** With CTGGAGGGA as the sequence, how does the switch fluorescence ratio read?
**A.** Its switch fluorescence ratio is 1 ± 0.07.

**Q.** With GTGGTCAGGG as the sequence, how does the switch fluorescence ratio read?
**A.** Its switch fluorescence ratio is 0.9855 ± 0.0092.

**Q.** For GTGGTGAGGT, which switch fluorescence ratio is on record?
**A.** The switch fluorescence ratio was 0.966 ± 0.02.

**Q.** Which switch fluorescence ratio does the source give for AAAGTGGGG here?
**A.** Its switch fluorescence ratio is 0.973 ± 0.016.

**Q.** How did the switch fluorescence ratio turn out when CAGTTGCTCA was run?
**A.** Its switch fluorescence ratio is 1.012 ± 0.0097.

**Q.** For GGTCTAGAAA, which switch fluorescence ratio is on record?
**A.** Its switch fluorescence ratio is 1.21 ± 0.3.

**Q.** For GTTGTCGGGG, which switch fluorescence ratio is on record?
**A.** Its switch fluorescence ratio is 1.02 ± 0.018.

**Q.** Which switch fluorescence ratio does the source give for GCCGGGTTGA here?
**A.** Its switch fluorescence ratio is 1.03 ± 0.048.

**Q.** For GTATGTAGTG, which switch fluorescence ratio is on record?
**A.** Its switch fluorescence ratio is 0.966 ± 0.023.

**Q.** Which switch fluorescence ratio does the source give for AGTACAATGC here?
**A.** The switch fluorescence ratio was 1.47 ± 0.18.

**Q.** TTGGTTAGGG was tested. Which switch fluorescence ratio did it give?
**A.** Its switch fluorescence ratio is 0.986 ± 0.027.

**Q.** How did the switch fluorescence ratio turn out when TTATTGGGCT was run?
**A.** The switch fluorescence ratio was 1.01 ± 0.013.

**Q.** GGTCTGCGCG was tested. Which switch fluorescence ratio did it give?
**A.** Its switch fluorescence ratio is 1.02 ± 0.037.

**Q.** With GAGGGGTTTA as the sequence, how does the switch fluorescence ratio read?
**A.** The switch fluorescence ratio was 1 ± 0.027.

**Q.** For TCGGGGGGAG, which switch fluorescence ratio is on record?
**A.** The switch fluorescence ratio was 1.01 ± 0.018.

**Q.** For ACCAGGGCAT, which switch fluorescence ratio is on record?
**A.** Its switch fluorescence ratio is 1.067 ± 0.0076.

**Q.** For CGGAGTGTGT, which switch fluorescence ratio is on record?
**A.** The switch fluorescence ratio was 1.01 ± 0.016.

**Q.** With TATTTTTATA as the sequence, how does the switch fluorescence ratio read?
**A.** Its switch fluorescence ratio is 0.992 ± 0.017.

**Q.** With AAAGGGGCGG as the sequence, how does the switch fluorescence ratio read?
**A.** The switch fluorescence ratio was 1.02 ± 0.022.

**Q.** For GGGATGCTCT, which switch fluorescence ratio is on record?
**A.** The switch fluorescence ratio was 1.01 ± 0.017.

**Q.** Which switch fluorescence ratio does the source give for CAATAGTCAA here?
**A.** Its switch fluorescence ratio is 1.05 ± 0.013.

**Q.** How did the switch fluorescence ratio turn out when CTAAAGGGGA was run?
**A.** Its switch fluorescence ratio is 1.08 ± 0.12.

**Q.** How did the switch fluorescence ratio turn out when TTGCGTGATG was run?
**A.** The switch fluorescence ratio was 1.02 ± 0.029.

**Q.** With ACTGCCATCG as the sequence, how does the switch fluorescence ratio read?
**A.** The switch fluorescence ratio was 1.1 ± 0.023.

**Q.** How did the switch fluorescence ratio turn out when AAGCGGGGGT was run?
**A.** The switch fluorescence ratio was 1.02 ± 0.026.

**Q.** With TAGGGCGCGG as the sequence, how does the switch fluorescence ratio read?
**A.** The switch fluorescence ratio was 0.9403 ± 0.0034.

**Q.** GCATTAGGAC was tested. Which switch fluorescence ratio did it give?
**A.** Its switch fluorescence ratio is 1.24 ± 0.018.

**Q.** GGGGAGTTCG was tested. Which switch fluorescence ratio did it give?
**A.** The switch fluorescence ratio was 0.983 ± 0.019.

**Q.** For CGGGGTGTTT, which switch fluorescence ratio is on record?
**A.** The switch fluorescence ratio was 1.012 ± 0.0055.

**Q.** GAAGGGGGGC was tested. Which switch fluorescence ratio did it give?
**A.** Its switch fluorescence ratio is 1.05 ± 0.18.

**Q.** For TTAGGACGAT, which switch fluorescence ratio is on record?
**A.** Its switch fluorescence ratio is 0.997 ± 0.051.

**Q.** GCTTCAGTAG was tested. Which switch fluorescence ratio did it give?
**A.** Its switch fluorescence ratio is 1.11 ± 0.02.

**Q.** With AAAGCGGGGC as the sequence, how does the switch fluorescence ratio read?
**A.** The switch fluorescence ratio was 1.02 ± 0.015.

**Q.** With GTTGCTTTGG as the sequence, how does the switch fluorescence ratio read?
**A.** The switch fluorescence ratio was 1.04 ± 0.017.

**Q.** CGCGAGCGTT was tested. Which switch fluorescence ratio did it give?
**A.** The switch fluorescence ratio was 0.995 ± 0.049.

**Q.** With CTGCGTCGTT as the sequence, how does the switch fluorescence ratio read?
**A.** Its switch fluorescence ratio is 0.9967 ± 0.004.

**Q.** For CTCGGTTTGG, which switch fluorescence ratio is on record?
**A.** Its switch fluorescence ratio is 1.01 ± 0.028.

**Q.** ATTGTGTCTA was tested. Which switch fluorescence ratio did it give?
**A.** Its switch fluorescence ratio is 0.9935 ± 0.007.

**Q.** CCTATACGGG was tested. Which switch fluorescence ratio did it give?
**A.** The switch fluorescence ratio was 1.03 ± 0.049.

**Q.** Which switch fluorescence ratio does the source give for CGCGCGGGCT here?
**A.** Its switch fluorescence ratio is 0.998 ± 0.051.

**Q.** For TTTCGCCAGA, which switch fluorescence ratio is on record?
**A.** Its switch fluorescence ratio is 1.03 ± 0.0044.

**Q.** How did the switch fluorescence ratio turn out when TTTAAATGCC was run?
**A.** The switch fluorescence ratio was 1.05 ± 0.05.

**Q.** Which switch fluorescence ratio does the source give for CTATGACAGC here?
**A.** Its switch fluorescence ratio is 1.01 ± 0.016.

**Q.** Which switch fluorescence ratio does the source give for TTGAAGCGGC here?
**A.** Its switch fluorescence ratio is 1.59 ± 0.76.

**Q.** CAGAGGAGTG was tested. Which switch fluorescence ratio did it give?
**A.** The switch fluorescence ratio was 0.9738 ± 0.0038.

**Q.** How did the switch fluorescence ratio turn out when GGACCGCATT was run?
**A.** Its switch fluorescence ratio is 2.5 ± 0.22.

**Q.** With TATTATGACC as the sequence, how does the switch fluorescence ratio read?
**A.** The switch fluorescence ratio was 1.01 ± 0.043.

**Q.** With TTGCAGATGG as the sequence, how does the switch fluorescence ratio read?
**A.** Its switch fluorescence ratio is 0.999 ± 0.057.

**Q.** How did the switch fluorescence ratio turn out when TTCGTTATTA was run?
**A.** The switch fluorescence ratio was 1.34 ± 0.42.

**Q.** For CAGATTTGTT, which switch fluorescence ratio is on record?
**A.** Its switch fluorescence ratio is 0.992 ± 0.018.

**Q.** For CAGAAAAAAC, which switch fluorescence ratio is on record?
**A.** Its switch fluorescence ratio is 1.05 ± 0.035.

**Q.** With CACCAGGAAT as the sequence, how does the switch fluorescence ratio read?
**A.** Its switch fluorescence ratio is 1.08 ± 0.021.

**Q.** Which switch fluorescence ratio does the source give for CGGGATCCAG here?
**A.** The switch fluorescence ratio was 1.01 ± 0.0094.

**Q.** CTTAGGGTGT was tested. Which switch fluorescence ratio did it give?
**A.** The switch fluorescence ratio was 0.964 ± 0.04.
